Blank lines part the entries; values can stand above or below the molecule they belong to.
What was measured:
s10_(long) H199Y = experiment: peptide or protein array
s10_(long) H199Y/T203F = experiment: peptide or protein array
s10_(long) H199Y/L207V = experiment: peptide or protein array
[1] = molecular target: s10_(long) WT peptide L195[…]212; experiment: peptide or protein array
[2] = molecular target: LOO10-GFP (circularly permuted superfolder GFP with strand 10 removed); experiment: fluorescence complementation
[3] = molecular target: LOO10-GFP (circularly permuted superfolder GFP with strand 10 removed); experiment: other fluorescence titration
[4] = molecular target: LOO10-GFP (circularly permuted superfolder GFP with strand 10 removed); experiment: competition experiment followed by fluorescence

Molecule: LOO10-GFP (circularly permuted superfolder GFP with strand 10 removed) (domain or fragment)
fold microarray fluorescence compared to WT (s10_(long) H199Y): 10 fold | fold microarray fluorescence compared to WT (s10_(long) H199Y/T203F): 54 fold | fold microarray fluorescence compared to WT (s10_(long) H199Y/L207V): 3 fold | mean microarray fluorescence [1]: 741 FU

Molecule: NYYLSTQTVLS [s10_(short) H199Y peptide]
fold increase in affinity compared to WT [3]: 5 fold

Molecule: NYYLSYQTVLS [s10_(short) H199Y/T203Y peptide]
fold increase in affinity compared to WT [3]: 9 fold

Molecule: LPDNHYLSTQTVRSKDPNE [s10 L207R peptide, long format (free 19-mer)]
fold weaker affinity than WT (approximated) [4]: > 10 fold

More lines, now with the values ahead:

fold increase in 520 nm signal on complementation [2]: 5 fold
Molecule: NHYLSTQTVLS [s10_(short) WT peptide N198…208]

fold increase in affinity compared to WT [3]: 2 fold
Molecule: NHYLSYQTVLS [s10_(short) T203Y peptide]

Source: article doi:10.1101/2020.05.20.105668
